Data as given in patent publication US20120148499A1.
Primed or numbered codes have the meaning given here. 5,6FAM″ = fluorescein-5(6)-carbonyl on the lysine (K(5,6FAM))

Target: purified myelin basic protein (MBP)
Experiment: peptide binding to MBP-crosslinked beads against control beads without MBP

fold increase in binding to MBP crosslinked beads over control beads (no MBP): 10 fold
Binder: Ac-SHSTYTDWLNFWAWPGK(5,6FAM″)-NH2 [acetyl-…(5,6FAM)-amide]
